In publication PMC9907325:

What was measured:
[1] = molecular target: Fc-tagged human IL-2Rαβγ (Acro, ILG-H5257) (human) (UniProt P01589)
[2] = molecular target: His-tagged cynomolgus IL-2Rα (Sino, 90265-C08H) (cynomolgus monkey); experiment: SPR; His-tagged human, mouse or cynomolgus IL-2Rα chemically immobilised by amine coupling on CM5 chips; 2-fold dilutions of HCW9302 or IL-2 injected 90 s, dissociation 210 s; regeneration 3 M magnesium chloride; 1:1 fitting model; KD apparent
[3] = molecular target: Fc-tagged human IL-2Rβγ (Acro, ILG-H5254) (human) (UniProt P14784); experiment: SPR; Biacore 8K; Fc-tagged receptors captured by immobilised anti-human IgG (Fc) antibody on CM5 chips; 2-fold dilutions of HCW9302 or IL-2 injected 120 s, dissociation 300 s; regeneration 3 M magnesium chloride; 1:1 fitting model; KD apparent
[4] = molecular target: Fc-tagged human IL-2Rα (Acro, ILA-H5251) (human) (UniProt P01589); experiment: as above
[5] = molecular target: Fc-tagged human IL-2Rαβγ (Acro, ILG-H5257) (human) (UniProt P01589); experiment: as above
[6] = molecular target: HCW9302 (IL-2/TF/IL-2 fusion protein) (human) (UniProt P13726); experiment: SEC; HPLC-SEC profile of purified native HCW9302
[7] = molecular target: His-tagged mouse IL-2Rα (Acro, ILG-M52H9) (mouse) (UniProt P01590); experiment: SPR; His-tagged human, mouse or cynomolgus IL-2Rα chemically immobilised by amine coupling on CM5 chips; 2-fold dilutions of HCW9302 or IL-2 injected 90 s, dissociation 210 s; regeneration 3 M magnesium chloride; 1:1 fitting model; KD apparent
[8] = molecular target: His-tagged human IL-2Rα (Acro, ILA-H5251) (human) (UniProt P01589); experiment: as above

Sequence of UniProt P01590 (P01590 22-236): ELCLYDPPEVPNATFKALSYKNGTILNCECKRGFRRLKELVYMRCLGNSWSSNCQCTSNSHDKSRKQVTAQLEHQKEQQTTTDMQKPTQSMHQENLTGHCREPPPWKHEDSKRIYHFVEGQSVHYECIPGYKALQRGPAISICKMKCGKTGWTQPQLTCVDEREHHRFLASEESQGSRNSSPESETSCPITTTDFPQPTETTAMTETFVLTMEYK
Sequence of UniProt P14784 (P14784 27-240, chain 1 of 2): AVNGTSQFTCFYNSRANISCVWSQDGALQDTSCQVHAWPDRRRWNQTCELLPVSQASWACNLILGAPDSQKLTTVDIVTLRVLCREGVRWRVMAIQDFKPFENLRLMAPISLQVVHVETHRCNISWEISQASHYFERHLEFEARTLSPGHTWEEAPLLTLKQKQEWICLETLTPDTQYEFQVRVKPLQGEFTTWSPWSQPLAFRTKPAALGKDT
Sequence of UniProt P14784 (P31785 23-262, chain 2 of 2, further chain): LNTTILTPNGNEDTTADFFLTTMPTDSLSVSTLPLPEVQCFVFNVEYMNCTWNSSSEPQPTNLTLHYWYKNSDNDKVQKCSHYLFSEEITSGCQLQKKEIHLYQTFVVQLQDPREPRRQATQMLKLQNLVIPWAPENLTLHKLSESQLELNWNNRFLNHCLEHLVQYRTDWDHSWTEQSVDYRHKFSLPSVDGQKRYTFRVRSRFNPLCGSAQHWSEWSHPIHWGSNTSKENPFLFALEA

phosphorylation of STAT5 in human Treg cells (PBMC, 30 min, 0.15-15000 pM), half-maximal stimulation (EC50) [1] [pM] | Kd [2] [nM] | koff [2] [s⁻¹] | kon [2] [M⁻¹ s⁻¹] | Kd [3] [nM] | koff [3] [s⁻¹] | kon [3] [M⁻¹ s⁻¹] | Kd [4] [nM] | koff [4] [s⁻¹] | Kd [5] [nM] | koff [5] [s⁻¹] | kon [5] [M⁻¹ s⁻¹] | stoichiometry N [6] | Kd [7] [nM] | koff [7] [s⁻¹] | kon [7] [M⁻¹ s⁻¹] | Kd [8] [nM] | koff [8] [s⁻¹] | kon [8] [M⁻¹ s⁻¹] | Substance
43.1 |  |  |  |  |  |  |  |  |  |  |  |  |  |  |  |  |  |  | aldesleukin (Proleukin), clinical grade rhIL-2 (from UniProt P60568 21-153) (ligand)
 | 16.3 | 0.212 | 1.3e+08 |  |  |  |  |  |  |  |  |  |  |  |  |  |  |  | human IL-2 (Acro, S13-H5113) (from UniProt P60568 21-153) (ligand)
6.12 | 0.00319 | 0.000457 | 1.43e+08 | 0.117 | 0.00017 | 1.45e+06 | 0.00199 | 0.107 | 0.00201 | 0.000771 | 3.83e+08 | 2 | 0.296 | 0.000918 | 3.1e+06 | 0.0132 | 0.00289 | 2.18e+08 | HCW9302 (IL-2/TF/IL-2 fusion protein) (from UniProt P13726 33-251) (ligand)
